Experimental data as given in patent US20220213169A1.
Substitutions are numbered along the chain they refer to. Where “and” joins values, the source holds several entries; their conditions need not be identical. Equal values may be shown once. Values belong to the binder of their own block, whether it stands above or below them.

Target: T1, human ADAM8 (human) (UniProt P78325)
T1 sequence: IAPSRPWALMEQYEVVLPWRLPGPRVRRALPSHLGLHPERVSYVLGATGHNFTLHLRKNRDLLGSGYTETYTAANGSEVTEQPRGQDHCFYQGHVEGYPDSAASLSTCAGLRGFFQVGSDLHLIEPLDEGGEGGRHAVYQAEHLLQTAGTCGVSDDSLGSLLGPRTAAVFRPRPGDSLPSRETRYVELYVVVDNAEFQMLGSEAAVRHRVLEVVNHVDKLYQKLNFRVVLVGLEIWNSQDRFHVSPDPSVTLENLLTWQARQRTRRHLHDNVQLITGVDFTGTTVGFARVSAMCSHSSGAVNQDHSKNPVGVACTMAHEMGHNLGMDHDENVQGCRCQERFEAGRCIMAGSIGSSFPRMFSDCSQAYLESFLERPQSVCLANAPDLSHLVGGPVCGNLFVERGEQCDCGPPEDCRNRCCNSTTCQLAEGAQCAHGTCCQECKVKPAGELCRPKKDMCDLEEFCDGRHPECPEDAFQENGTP
Assay: cell-based or functional assay

B1: ADAM8 prodomain peptide SEQ ID NO: 4 (peptide, not shown: small tags and cut ends)
chain: MIAPSRPWALMEQYEVVLPRRLPGPRVRAALPSHLGLHPERVSYVLGATGHNFTLHLRKNRDLLGSGYTETYTAANGSEVTEQPRGQDHSFYQGHVEGYPDSAASLSTSAGLRGFFQVGSDLHLIEPLDEGGEGGRHAVYQAEHLLQTAGTSGVSDDSLGSLLGPRTAAVFRPRPGDSLPS
percent inhibition of ADAM8 (cleavage of fluorescence energy transfer substrate PEPDAB064 or PEPDAB013) (% inhibition at 5 uM): 40

B3: ADAM8 prodomain peptide SEQ ID NO: 15 (peptide, not shown: small tags and cut ends)
chain: B1 chain with A29G
percent inhibition of ADAM8 (cleavage of fluorescence energy transfer substrate PEPDAB064 or PEPDAB013) (% inhibition at 4.8 uM): 45

B4: SEQ ID NO: 15 (pegylated at C-terminus) (peptide, part only; not given: added cysteine residues and His tag, not shown: small tags and cut ends)
chain, part: B1 chain with A29G
modifications: 5 kDa maleimide PEG on an added cysteine near the C-terminus
IC50 for inhibition of ADAM8 (cleavage of fluorescence energy transfer substrate PEPDAB064 or PEPDAB013): 1800 nM and 3000 nM

B7: SEQ ID NO: 17 (Pegylated on N-terminus) (peptide, part only; not given: added cysteine residues and His tag, not shown: small tags and cut ends)
chain, part: B1 chain with R20W, R26K, A29K
modifications: 5 kDa maleimide PEG on an introduced cysteine near the N-terminus
IC50 for inhibition of ADAM8 (cleavage of fluorescence energy transfer substrate PEPDAB064 or PEPDAB013): 24000 nM

B8: wild type human ADAM8 prodomain peptide SEQ ID NO: 2 (peptide, not shown: small tags and cut ends)
chain: B1 chain with R20W, A29R, S90C, S109C, S152C
IC50 for inhibition of ADAM8 (cleavage of fluorescence energy transfer substrate PEPDAB064 or PEPDAB013): 2800 nM and 2300 nM

Continued, values first:

IC50 for inhibition of ADAM8 (cleavage of fluorescence energy transfer substrate PEPDAB064 or PEPDAB013): 400 nM
B2: ADAM8 prodomain peptide SEQ ID NO: 16 (peptide, not shown: small tags and cut ends)
chain: B1 chain with A29R, S90C, F91L, S109C, S152C

IC50 for inhibition of ADAM8 (cleavage of fluorescence energy transfer substrate PEPDAB064 or PEPDAB013): 2700 nM and 2300 nM
B5: SEQ ID NO: 14 (pegylated on 3 cysteines) (peptide, not shown: small tags and cut ends)
chain: B1 chain with A29R, S90C, S109C, S152C
modifications: 2 kDa maleimide PEG on all three cysteines (cysteines 105, 124 and 167 of SEQ ID NO: 1 numbering; positions 90, 109 and 152 of SEQ ID NO: 14)

IC50 for inhibition of ADAM8 (cleavage of fluorescence energy transfer substrate PEPDAB064 or PEPDAB013): 1400 nM and 2300 nM
B6: ADAM8 prodomain peptide SEQ ID NO: 14 (peptide, not shown: small tags and cut ends)
chain: B1 chain with A29R, S90C, S109C, S152C

percent inhibition of ADAM8 (cleavage of fluorescence energy transfer substrate PEPDAB064 or PEPDAB013) (% inhibition at 4.8 uM): 51
B9: ADAM8 prodomain peptide SEQ ID NO: 17 (peptide, not shown: small tags and cut ends)
chain: B1 chain with R20W, R26K, A29K
